In publication PMC8872419:

Target: mutated SMN1 protein with T274YfsX32, myc-tagged (exogenous) (human) (UniProt Q16637)
Test: co-IP; lysate (1 mg) of HeLa cells 24 h after transfection, RIPA buffer without SDS; anti-myc-tag antibody on Dynabeads Protein A; washed three times; blots with anti-myc-tag and anti-SMN antibodies; band ratio End-SMN/Exo-SMN, in triplicate

ratio of End-SMN to Exo-SMN: 0.02 | ratio of End-SMN/Exo-SMN, percent of wild type: 4%
Substance: endogenous FL-SMN1 and/or FL-SMN2 protein (endogenous SMN protein) (from UniProt Q16637 1-294) (natural protein)
